Results as given in the supplement of paper PMC9876800.

System: peptide library, one residue held at a place counted from the S/T acceptor
Assay: relative phosphorylation of the sub-library (ratio to the mean residue at this position); human; higher = residue favoured
Conditions: R fixed; at +1
Procedure, shortened: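 In 384-well plates, purified recombinant kinases (human or orthologue constructs) were incubated for 90 min under kinase-specific conditions with 50 μM biotinylated degenerate peptide sub-libraries and 50 μM ATP spiked with γ-32P-ATP. Each sub-library fixed a single residue at one position around a central Ser/Thr. Relative sub-library phosphorylation, measured by phosphorimaging and densitometry of streptavidin membrane spots, is given as a ratio to the mean residue at that position.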

Chain of NEK6, construct: Full length (Q9HC98 whole entry, looked up): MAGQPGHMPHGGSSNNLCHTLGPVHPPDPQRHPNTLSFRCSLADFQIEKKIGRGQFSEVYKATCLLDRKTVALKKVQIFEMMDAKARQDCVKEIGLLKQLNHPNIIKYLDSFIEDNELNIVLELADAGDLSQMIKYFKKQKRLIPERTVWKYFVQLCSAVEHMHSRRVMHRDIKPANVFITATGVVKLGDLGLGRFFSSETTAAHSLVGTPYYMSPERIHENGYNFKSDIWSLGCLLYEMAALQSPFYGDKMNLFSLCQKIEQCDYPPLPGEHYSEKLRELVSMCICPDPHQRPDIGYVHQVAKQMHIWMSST
Chain of CDK10, construct: Full length (Q15131 whole entry, looked up): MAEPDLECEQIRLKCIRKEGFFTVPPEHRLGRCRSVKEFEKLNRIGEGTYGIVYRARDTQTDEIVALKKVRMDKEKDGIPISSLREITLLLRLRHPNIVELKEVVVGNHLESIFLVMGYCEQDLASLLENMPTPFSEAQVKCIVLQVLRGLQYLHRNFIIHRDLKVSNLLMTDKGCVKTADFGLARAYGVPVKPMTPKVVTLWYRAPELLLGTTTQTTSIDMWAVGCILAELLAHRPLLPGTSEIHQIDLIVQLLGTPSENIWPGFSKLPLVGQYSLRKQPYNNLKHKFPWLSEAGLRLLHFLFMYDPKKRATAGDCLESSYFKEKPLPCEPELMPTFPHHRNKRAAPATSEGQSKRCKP
Chain of SLK, construct: Full length (Q9H2G2 whole entry, looked up): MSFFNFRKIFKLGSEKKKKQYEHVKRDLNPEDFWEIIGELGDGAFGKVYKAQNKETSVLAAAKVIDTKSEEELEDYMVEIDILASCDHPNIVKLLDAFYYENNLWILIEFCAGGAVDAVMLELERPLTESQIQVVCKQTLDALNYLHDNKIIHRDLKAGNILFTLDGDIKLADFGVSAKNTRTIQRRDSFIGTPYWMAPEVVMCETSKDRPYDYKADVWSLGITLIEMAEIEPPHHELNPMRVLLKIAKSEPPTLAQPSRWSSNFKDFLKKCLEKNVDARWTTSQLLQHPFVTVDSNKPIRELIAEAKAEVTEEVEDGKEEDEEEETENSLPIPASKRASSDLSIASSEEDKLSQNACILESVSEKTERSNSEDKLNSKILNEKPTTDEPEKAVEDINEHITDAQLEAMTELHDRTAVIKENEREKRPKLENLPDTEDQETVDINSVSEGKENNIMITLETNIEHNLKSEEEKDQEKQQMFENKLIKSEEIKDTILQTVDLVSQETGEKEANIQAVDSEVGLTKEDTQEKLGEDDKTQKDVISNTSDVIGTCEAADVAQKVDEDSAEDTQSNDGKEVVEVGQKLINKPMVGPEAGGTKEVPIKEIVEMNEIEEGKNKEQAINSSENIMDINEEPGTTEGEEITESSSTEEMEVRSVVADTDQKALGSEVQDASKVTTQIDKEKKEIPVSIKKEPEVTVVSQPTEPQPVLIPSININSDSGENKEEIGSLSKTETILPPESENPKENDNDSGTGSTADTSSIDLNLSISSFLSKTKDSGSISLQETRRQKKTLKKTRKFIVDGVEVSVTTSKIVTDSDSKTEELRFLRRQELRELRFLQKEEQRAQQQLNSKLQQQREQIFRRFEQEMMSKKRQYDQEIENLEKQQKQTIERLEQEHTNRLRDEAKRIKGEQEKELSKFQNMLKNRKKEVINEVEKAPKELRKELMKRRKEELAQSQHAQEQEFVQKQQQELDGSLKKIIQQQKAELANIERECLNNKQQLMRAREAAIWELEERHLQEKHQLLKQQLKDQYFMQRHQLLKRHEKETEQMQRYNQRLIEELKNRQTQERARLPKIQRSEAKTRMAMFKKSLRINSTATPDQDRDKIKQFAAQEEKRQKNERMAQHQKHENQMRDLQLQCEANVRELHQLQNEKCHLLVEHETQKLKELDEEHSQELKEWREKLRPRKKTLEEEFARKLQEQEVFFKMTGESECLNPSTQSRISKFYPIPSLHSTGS
Chain of SIK3, construct: aa1-307 (Q9Y2K2 1-307, looked up): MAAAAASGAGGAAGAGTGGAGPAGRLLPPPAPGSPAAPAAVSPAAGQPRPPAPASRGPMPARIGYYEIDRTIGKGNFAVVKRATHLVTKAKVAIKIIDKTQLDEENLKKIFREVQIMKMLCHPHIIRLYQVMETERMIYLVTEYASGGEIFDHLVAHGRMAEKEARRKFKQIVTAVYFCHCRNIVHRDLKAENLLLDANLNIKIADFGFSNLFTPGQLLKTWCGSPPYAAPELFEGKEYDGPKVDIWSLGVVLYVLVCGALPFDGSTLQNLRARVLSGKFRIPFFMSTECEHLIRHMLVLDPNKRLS
Chain of TNIK, construct: aa1-314 (Q9UKE5 1-314, looked up): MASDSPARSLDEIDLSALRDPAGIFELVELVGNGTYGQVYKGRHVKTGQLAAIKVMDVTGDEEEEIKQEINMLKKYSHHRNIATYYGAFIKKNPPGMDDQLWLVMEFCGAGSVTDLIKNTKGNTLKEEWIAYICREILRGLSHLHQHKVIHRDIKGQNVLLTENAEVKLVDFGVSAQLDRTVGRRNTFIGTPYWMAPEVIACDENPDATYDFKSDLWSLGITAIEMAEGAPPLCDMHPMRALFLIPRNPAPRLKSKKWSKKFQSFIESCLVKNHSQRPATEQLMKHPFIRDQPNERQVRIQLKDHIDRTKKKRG
Chain of IKBKE, construct: Full length (Q14164 whole entry, looked up): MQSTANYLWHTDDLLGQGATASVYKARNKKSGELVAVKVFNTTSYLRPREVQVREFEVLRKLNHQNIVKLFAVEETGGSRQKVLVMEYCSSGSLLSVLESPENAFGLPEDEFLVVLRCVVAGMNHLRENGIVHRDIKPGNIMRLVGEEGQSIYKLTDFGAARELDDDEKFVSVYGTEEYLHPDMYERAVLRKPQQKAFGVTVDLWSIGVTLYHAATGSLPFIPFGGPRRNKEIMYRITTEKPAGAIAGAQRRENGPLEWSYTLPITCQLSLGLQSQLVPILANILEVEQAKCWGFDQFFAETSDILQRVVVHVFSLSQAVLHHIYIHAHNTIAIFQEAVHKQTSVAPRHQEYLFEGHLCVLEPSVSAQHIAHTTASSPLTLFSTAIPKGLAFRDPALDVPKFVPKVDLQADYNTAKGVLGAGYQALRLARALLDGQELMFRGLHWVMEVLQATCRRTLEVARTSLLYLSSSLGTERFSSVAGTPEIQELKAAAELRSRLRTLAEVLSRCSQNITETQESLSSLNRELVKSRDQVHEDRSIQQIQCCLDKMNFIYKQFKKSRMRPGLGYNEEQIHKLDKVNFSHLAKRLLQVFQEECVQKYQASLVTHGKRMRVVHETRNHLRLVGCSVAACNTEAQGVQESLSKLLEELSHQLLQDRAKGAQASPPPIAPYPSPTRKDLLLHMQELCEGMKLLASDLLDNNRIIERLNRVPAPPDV
Chain of MAP4K5, construct: Full length (Q9Y4K4 whole entry, looked up): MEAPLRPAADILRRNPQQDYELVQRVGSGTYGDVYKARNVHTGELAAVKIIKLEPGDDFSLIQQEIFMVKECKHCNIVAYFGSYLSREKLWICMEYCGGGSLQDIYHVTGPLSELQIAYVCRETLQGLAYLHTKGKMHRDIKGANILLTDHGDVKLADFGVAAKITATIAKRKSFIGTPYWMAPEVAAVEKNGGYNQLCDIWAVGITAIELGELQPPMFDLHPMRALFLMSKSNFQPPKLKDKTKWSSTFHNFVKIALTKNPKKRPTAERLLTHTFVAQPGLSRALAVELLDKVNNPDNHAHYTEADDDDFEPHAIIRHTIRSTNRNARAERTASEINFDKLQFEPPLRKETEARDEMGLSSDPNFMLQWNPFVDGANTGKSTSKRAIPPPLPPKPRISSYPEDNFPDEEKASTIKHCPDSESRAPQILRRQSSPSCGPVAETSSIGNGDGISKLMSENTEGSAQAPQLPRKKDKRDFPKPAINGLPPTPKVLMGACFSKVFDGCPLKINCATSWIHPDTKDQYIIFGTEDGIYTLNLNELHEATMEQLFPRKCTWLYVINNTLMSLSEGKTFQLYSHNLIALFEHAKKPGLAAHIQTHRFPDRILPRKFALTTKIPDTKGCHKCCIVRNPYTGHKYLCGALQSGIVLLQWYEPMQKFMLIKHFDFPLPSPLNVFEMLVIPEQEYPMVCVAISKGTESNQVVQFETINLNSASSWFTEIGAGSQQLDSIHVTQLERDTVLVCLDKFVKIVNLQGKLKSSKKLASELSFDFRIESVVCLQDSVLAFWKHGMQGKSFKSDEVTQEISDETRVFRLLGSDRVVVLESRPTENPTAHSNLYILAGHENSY

Q: For “SIK3, construct: aa1-307 (from UniProt Q9Y2K2)”, which relative phosphorylation is on record?
A: 1.1

Q: How did the relative phosphorylation turn out when “TNIK, construct: aa1-314 (from UniProt Q9UKE5)” was run?
A: 0.995

Q: For “SLK, construct: Full length (from UniProt Q9H2G2)”, which relative phosphorylation is on record?
A: 1.11

Q: How did the relative phosphorylation turn out when “CDK10, construct: Full length (from UniProt Q15131)” was run?
A: 0.405

Same assay, conditions: R fixed; at +2

Q: “PKN2, construct: aa501-984 (from UniProt Q16513)” was tested. Which relative phosphorylation did it give?
A: 3.42

Q: For “IKBKE, construct: Full length (from UniProt Q14164)”, which relative phosphorylation is on record?
A: 0.931

Q: How did the relative phosphorylation turn out when “MAP4K5, construct: Full length (from UniProt Q9Y4K4)” was run?
A: 2.53

Q: With “NEK6, construct: Full length (from UniProt Q9HC98)” as the substance, how does the relative phosphorylation read?
A: 2.23

Q: With “SIK3, construct: aa1-307 (from UniProt Q9Y2K2)” as the substance, how does the relative phosphorylation read?
A: 0.956

Q: How did the relative phosphorylation turn out when “TNIK, construct: aa1-314 (from UniProt Q9UKE5)” was run?
A: 2.4

Q: “SLK, construct: Full length (from UniProt Q9H2G2)” was tested. Which relative phosphorylation did it give?
A: 3.74

Q: For “CDK10, construct: Full length (from UniProt Q15131)”, which relative phosphorylation is on record?
A: 3.58

Same assay, conditions: R fixed; at +3

Q: “PKN2, construct: aa501-984 (from UniProt Q16513)” was tested. Which relative phosphorylation did it give?
A: 2.22

Q: “IKBKE, construct: Full length (from UniProt Q14164)” was tested. Which relative phosphorylation did it give?
A: 0.626

Q: “MAP4K5, construct: Full length (from UniProt Q9Y4K4)” was tested. Which relative phosphorylation did it give?
A: 3.55

Q: With “NEK6, construct: Full length (from UniProt Q9HC98)” as the substance, how does the relative phosphorylation read?
A: 1.4

Q: For “SIK3, construct: aa1-307 (from UniProt Q9Y2K2)”, which relative phosphorylation is on record?
A: 0.688

Q: “TNIK, construct: aa1-314 (from UniProt Q9UKE5)” was tested. Which relative phosphorylation did it give?
A: 3.23

Q: For “SLK, construct: Full length (from UniProt Q9H2G2)”, which relative phosphorylation is on record?
A: 2.14

Q: “CDK10, construct: Full length (from UniProt Q15131)” was tested. Which relative phosphorylation did it give?
A: 4.52

Same assay, conditions: R fixed; at +4

Q: With “PKN2, construct: aa501-984 (from UniProt Q16513)” as the substance, how does the relative phosphorylation read?
A: 1.7

Q: How did the relative phosphorylation turn out when “IKBKE, construct: Full length (from UniProt Q14164)” was run?
A: 0.721

Q: “MAP4K5, construct: Full length (from UniProt Q9Y4K4)” was tested. Which relative phosphorylation did it give?
A: 1.49

Q: How did the relative phosphorylation turn out when “NEK6, construct: Full length (from UniProt Q9HC98)” was run?
A: 1.4

Q: With “SIK3, construct: aa1-307 (from UniProt Q9Y2K2)” as the substance, how does the relative phosphorylation read?
A: 0.459

Q: How did the relative phosphorylation turn out when “TNIK, construct: aa1-314 (from UniProt Q9UKE5)” was run?
A: 2.2

Q: “SLK, construct: Full length (from UniProt Q9H2G2)” was tested. Which relative phosphorylation did it give?
A: 1.45

Q: Which relative phosphorylation does the source give for “CDK10, construct: Full length (from UniProt Q15131)” here?
A: 2.61

Same assay, conditions: R fixed; at -1

Q: For “PKN2, construct: aa501-984 (from UniProt Q16513)”, which relative phosphorylation is on record?
A: 1.71

Q: “IKBKE, construct: Full length (from UniProt Q14164)” was tested. Which relative phosphorylation did it give?
A: 0.955

Q: How did the relative phosphorylation turn out when “MAP4K5, construct: Full length (from UniProt Q9Y4K4)” was run?
A: 1.65

Q: How did the relative phosphorylation turn out when “NEK6, construct: Full length (from UniProt Q9HC98)” was run?
A: 1.51

Q: Which relative phosphorylation does the source give for “SIK3, construct: aa1-307 (from UniProt Q9Y2K2)” here?
A: 1.4

Q: How did the relative phosphorylation turn out when “TNIK, construct: aa1-314 (from UniProt Q9UKE5)” was run?
A: 1.7

Q: With “SLK, construct: Full length (from UniProt Q9H2G2)” as the substance, how does the relative phosphorylation read?
A: 1.68

Q: For “CDK10, construct: Full length (from UniProt Q15131)”, which relative phosphorylation is on record?
A: 2.65

Same assay, conditions: R fixed; at -2

Q: “PKN2, construct: aa501-984 (from UniProt Q16513)” was tested. Which relative phosphorylation did it give?
A: 2.83

Q: For “IKBKE, construct: Full length (from UniProt Q14164)”, which relative phosphorylation is on record?
A: 0.62

Q: Which relative phosphorylation does the source give for “MAP4K5, construct: Full length (from UniProt Q9Y4K4)” here?
A: 1.36

Q: For “NEK6, construct: Full length (from UniProt Q9HC98)”, which relative phosphorylation is on record?
A: 0.663

Q: How did the relative phosphorylation turn out when “SIK3, construct: aa1-307 (from UniProt Q9Y2K2)” was run?
A: 1.45

Q: For “TNIK, construct: aa1-314 (from UniProt Q9UKE5)”, which relative phosphorylation is on record?
A: 1.19

Q: With “SLK, construct: Full length (from UniProt Q9H2G2)” as the substance, how does the relative phosphorylation read?
A: 1.13

Q: “CDK10, construct: Full length (from UniProt Q15131)” was tested. Which relative phosphorylation did it give?
A: 2.65

Same assay, conditions: R fixed; at -3

Q: How did the relative phosphorylation turn out when “PKN2, construct: aa501-984 (from UniProt Q16513)” was run?
A: 4.31

Q: With “IKBKE, construct: Full length (from UniProt Q14164)” as the substance, how does the relative phosphorylation read?
A: 0.968

Q: Which relative phosphorylation does the source give for “MAP4K5, construct: Full length (from UniProt Q9Y4K4)” here?
A: 1.77

Q: Which relative phosphorylation does the source give for “NEK6, construct: Full length (from UniProt Q9HC98)” here?
A: 0.463

Q: How did the relative phosphorylation turn out when “SIK3, construct: aa1-307 (from UniProt Q9Y2K2)” was run?
A: 4.8

Q: For “TNIK, construct: aa1-314 (from UniProt Q9UKE5)”, which relative phosphorylation is on record?
A: 1.33

Q: “SLK, construct: Full length (from UniProt Q9H2G2)” was tested. Which relative phosphorylation did it give?
A: 1.79

Q: With “CDK10, construct: Full length (from UniProt Q15131)” as the substance, how does the relative phosphorylation read?
A: 3.91

Same assay, conditions: R fixed; at -4

Q: For “PKN2, construct: aa501-984 (from UniProt Q16513)”, which relative phosphorylation is on record?
A: 1.59

Q: How did the relative phosphorylation turn out when “IKBKE, construct: Full length (from UniProt Q14164)” was run?
A: 0.845

Q: For “MAP4K5, construct: Full length (from UniProt Q9Y4K4)”, which relative phosphorylation is on record?
A: 1.25

Q: Which relative phosphorylation does the source give for “NEK6, construct: Full length (from UniProt Q9HC98)” here?
A: 0.869

Q: Which relative phosphorylation does the source give for “SIK3, construct: aa1-307 (from UniProt Q9Y2K2)” here?
A: 1.73

Q: For “TNIK, construct: aa1-314 (from UniProt Q9UKE5)”, which relative phosphorylation is on record?
A: 1.17

Q: “SLK, construct: Full length (from UniProt Q9H2G2)” was tested. Which relative phosphorylation did it give?
A: 1.11

Q: Which relative phosphorylation does the source give for “CDK10, construct: Full length (from UniProt Q15131)” here?
A: 2.3

Same assay, conditions: R fixed; at -5

Q: How did the relative phosphorylation turn out when “PKN2, construct: aa501-984 (from UniProt Q16513)” was run?
A: 1.84

Q: How did the relative phosphorylation turn out when “IKBKE, construct: Full length (from UniProt Q14164)” was run?
A: 0.965

Q: Which relative phosphorylation does the source give for “MAP4K5, construct: Full length (from UniProt Q9Y4K4)” here?
A: 1.25

Q: Which relative phosphorylation does the source give for “NEK6, construct: Full length (from UniProt Q9HC98)” here?
A: 0.685

Q: Which relative phosphorylation does the source give for “SIK3, construct: aa1-307 (from UniProt Q9Y2K2)” here?
A: 1.5

Q: For “TNIK, construct: aa1-314 (from UniProt Q9UKE5)”, which relative phosphorylation is on record?
A: 1.22

Q: “SLK, construct: Full length (from UniProt Q9H2G2)” was tested. Which relative phosphorylation did it give?
A: 1.31

Q: For “CDK10, construct: Full length (from UniProt Q15131)”, which relative phosphorylation is on record?
A: 2.25

Same assay, conditions: V fixed; at +1

Q: With “PKN2, construct: aa501-984 (from UniProt Q16513)” as the substance, how does the relative phosphorylation read?
A: 0.927

Q: For “IKBKE, construct: Full length (from UniProt Q14164)”, which relative phosphorylation is on record?
A: 1.04

Q: For “MAP4K5, construct: Full length (from UniProt Q9Y4K4)”, which relative phosphorylation is on record?
A: 0.78

Q: With “NEK6, construct: Full length (from UniProt Q9HC98)” as the substance, how does the relative phosphorylation read?
A: 0.602

Q: With “SIK3, construct: aa1-307 (from UniProt Q9Y2K2)” as the substance, how does the relative phosphorylation read?
A: 1.28

Q: With “TNIK, construct: aa1-314 (from UniProt Q9UKE5)” as the substance, how does the relative phosphorylation read?
A: 0.898

Q: How did the relative phosphorylation turn out when “SLK, construct: Full length (from UniProt Q9H2G2)” was run?
A: 0.673

Q: With “CDK10, construct: Full length (from UniProt Q15131)” as the substance, how does the relative phosphorylation read?
A: 0.245

Same assay, conditions: V fixed; at +2

Q: How did the relative phosphorylation turn out when “PKN2, construct: aa501-984 (from UniProt Q16513)” was run?
A: 0.8

Q: Which relative phosphorylation does the source give for “IKBKE, construct: Full length (from UniProt Q14164)” here?
A: 1.22

Q: “MAP4K5, construct: Full length (from UniProt Q9Y4K4)” was tested. Which relative phosphorylation did it give?
A: 0.513

Q: With “NEK6, construct: Full length (from UniProt Q9HC98)” as the substance, how does the relative phosphorylation read?
A: 0.533

Q: Which relative phosphorylation does the source give for “SIK3, construct: aa1-307 (from UniProt Q9Y2K2)” here?
A: 0.926

Q: Which relative phosphorylation does the source give for “TNIK, construct: aa1-314 (from UniProt Q9UKE5)” here?
A: 0.531

Q: How did the relative phosphorylation turn out when “SLK, construct: Full length (from UniProt Q9H2G2)” was run?
A: 0.445

Q: “CDK10, construct: Full length (from UniProt Q15131)” was tested. Which relative phosphorylation did it give?
A: 0.515

Same assay, conditions: V fixed; at +3

Q: With “PKN2, construct: aa501-984 (from UniProt Q16513)” as the substance, how does the relative phosphorylation read?
A: 0.875

Q: Which relative phosphorylation does the source give for “IKBKE, construct: Full length (from UniProt Q14164)” here?
A: 0.936
